“And” between values parts separate entries of the source, which are not always exact repeats. Identical values can stand only once.
T1: Pan1p (S. cerevisiae (endogenous in yeast cells)), P32521
T1 chain: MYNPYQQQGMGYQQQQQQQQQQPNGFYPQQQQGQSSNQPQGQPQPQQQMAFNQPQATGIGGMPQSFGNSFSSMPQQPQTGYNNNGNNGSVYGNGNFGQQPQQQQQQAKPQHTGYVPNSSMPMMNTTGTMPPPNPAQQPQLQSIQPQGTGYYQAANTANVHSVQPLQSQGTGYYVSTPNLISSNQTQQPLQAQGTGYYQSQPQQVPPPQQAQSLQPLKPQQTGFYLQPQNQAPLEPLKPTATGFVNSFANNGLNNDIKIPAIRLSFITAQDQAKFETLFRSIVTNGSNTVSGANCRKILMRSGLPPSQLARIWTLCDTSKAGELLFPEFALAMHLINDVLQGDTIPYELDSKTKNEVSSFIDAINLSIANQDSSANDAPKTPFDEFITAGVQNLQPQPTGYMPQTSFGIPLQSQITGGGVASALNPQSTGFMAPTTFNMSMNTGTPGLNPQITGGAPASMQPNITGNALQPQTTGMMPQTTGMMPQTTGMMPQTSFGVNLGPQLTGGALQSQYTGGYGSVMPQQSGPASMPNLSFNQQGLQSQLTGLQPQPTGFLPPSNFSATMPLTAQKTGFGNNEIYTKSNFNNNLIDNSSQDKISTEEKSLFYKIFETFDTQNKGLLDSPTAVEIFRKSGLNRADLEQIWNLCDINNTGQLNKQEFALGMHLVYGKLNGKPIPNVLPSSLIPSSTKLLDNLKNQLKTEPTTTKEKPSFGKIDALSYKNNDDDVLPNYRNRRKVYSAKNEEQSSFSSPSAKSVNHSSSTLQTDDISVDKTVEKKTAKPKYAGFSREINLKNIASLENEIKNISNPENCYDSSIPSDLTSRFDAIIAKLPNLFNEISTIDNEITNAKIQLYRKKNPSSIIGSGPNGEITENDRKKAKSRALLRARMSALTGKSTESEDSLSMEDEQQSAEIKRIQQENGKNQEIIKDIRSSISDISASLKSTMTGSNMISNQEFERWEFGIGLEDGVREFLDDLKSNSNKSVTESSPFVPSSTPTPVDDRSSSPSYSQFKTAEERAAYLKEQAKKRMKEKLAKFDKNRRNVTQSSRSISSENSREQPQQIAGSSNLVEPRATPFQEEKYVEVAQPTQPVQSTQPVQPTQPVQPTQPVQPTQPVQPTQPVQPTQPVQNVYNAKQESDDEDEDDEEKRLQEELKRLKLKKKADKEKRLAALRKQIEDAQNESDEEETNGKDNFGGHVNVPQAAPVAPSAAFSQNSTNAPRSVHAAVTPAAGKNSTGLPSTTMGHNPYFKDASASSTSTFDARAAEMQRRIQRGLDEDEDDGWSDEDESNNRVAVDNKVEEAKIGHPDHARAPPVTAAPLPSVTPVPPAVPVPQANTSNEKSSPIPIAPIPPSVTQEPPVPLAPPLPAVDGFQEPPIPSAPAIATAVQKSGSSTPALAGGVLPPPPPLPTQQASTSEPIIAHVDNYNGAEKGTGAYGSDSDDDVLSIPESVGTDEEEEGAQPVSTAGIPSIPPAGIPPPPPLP

T2: Pan1p EH2 (96–145/403–713) (S. cerevisiae, UniProt P32521 96-145; P32521 403-713)
T2 chain (looked up): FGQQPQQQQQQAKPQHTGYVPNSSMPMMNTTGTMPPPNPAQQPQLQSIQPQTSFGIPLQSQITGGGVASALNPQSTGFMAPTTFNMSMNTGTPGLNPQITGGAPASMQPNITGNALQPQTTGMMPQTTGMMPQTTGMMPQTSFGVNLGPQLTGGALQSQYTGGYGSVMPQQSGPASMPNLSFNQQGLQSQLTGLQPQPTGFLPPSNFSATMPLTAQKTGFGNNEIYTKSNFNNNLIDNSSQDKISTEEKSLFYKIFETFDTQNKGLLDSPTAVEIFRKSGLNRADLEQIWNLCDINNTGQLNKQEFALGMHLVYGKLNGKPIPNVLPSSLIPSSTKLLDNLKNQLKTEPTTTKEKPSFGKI

T3: Pan1p EH1 (96–403) (S. cerevisiae, UniProt P32521 96-403)
T3 sequence (looked up): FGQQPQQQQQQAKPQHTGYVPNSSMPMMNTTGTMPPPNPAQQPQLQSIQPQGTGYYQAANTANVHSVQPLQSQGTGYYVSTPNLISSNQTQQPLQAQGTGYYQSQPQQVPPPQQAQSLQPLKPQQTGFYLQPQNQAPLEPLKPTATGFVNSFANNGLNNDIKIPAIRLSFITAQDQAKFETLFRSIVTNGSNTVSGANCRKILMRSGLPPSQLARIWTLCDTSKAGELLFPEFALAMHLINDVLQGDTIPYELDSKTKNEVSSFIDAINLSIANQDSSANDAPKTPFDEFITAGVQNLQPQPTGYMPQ

T4: Pan1p EH2 (544–713) (S. cerevisiae, UniProt P32521 544-713)
T4 sequence (looked up): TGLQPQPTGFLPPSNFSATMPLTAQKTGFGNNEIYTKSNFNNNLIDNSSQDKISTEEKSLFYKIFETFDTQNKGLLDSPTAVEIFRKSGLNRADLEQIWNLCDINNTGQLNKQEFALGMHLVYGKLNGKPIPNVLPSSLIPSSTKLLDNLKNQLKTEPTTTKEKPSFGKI

T5: Pan1p EH1–2 (96–713) (S. cerevisiae, UniProt P32521 96-713)
T5 sequence (looked up): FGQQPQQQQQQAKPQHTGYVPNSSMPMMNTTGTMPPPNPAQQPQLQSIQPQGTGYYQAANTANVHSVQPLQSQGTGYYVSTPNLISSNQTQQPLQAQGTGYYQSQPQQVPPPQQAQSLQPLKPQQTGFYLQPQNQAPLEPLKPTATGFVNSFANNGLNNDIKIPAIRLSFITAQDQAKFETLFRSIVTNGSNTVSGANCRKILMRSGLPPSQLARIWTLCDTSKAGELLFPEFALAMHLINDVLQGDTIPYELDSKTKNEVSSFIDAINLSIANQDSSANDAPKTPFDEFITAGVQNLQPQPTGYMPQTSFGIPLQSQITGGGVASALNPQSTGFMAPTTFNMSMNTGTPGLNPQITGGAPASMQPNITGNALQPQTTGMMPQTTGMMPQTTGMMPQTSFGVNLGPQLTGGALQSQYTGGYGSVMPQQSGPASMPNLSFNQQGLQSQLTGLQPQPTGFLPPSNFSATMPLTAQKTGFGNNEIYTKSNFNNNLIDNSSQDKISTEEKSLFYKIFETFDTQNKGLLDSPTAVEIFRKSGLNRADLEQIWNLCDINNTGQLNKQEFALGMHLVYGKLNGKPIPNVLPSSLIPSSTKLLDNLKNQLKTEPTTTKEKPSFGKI

B1: yAP180A, P38856 1-637 (natural protein)
chain: MTTYFKLVKGATKIKSAPPKQKYLDPILLGTSNEEDFYEIVKGLDSRINDTAWTIVYKSLLVVHLMIREGSKDVALRYYSRNLEFFDIENIRGSNGSASGDMRALDRYDNYLKVRCREFGKIKKDYVRDGYRTLKLNSGNYGSSRNKQHSINIALDHVESLEVQIQALIKNKYTQYDLSNELIIFGFKLLIQDLLALYNALNEGIITLLESFFELSHHNAERTLDLYKTFVDLTEHVVRYLKSGKTAGLKIPVIKHITTKLVRSLEEHLIEDDKTHNTFVPVDSSQGSAGAVVAKSTAQERLEQIREQKRILEAQLKNEQVAISPALTTVTAAQSYNPFGTDSSMHTNIPMAVANQTQQIANNPFVSQTQPQVMNTPTAHTEPANLNVPEYAAVQHTVNFNPVQDAGVSAQQTGYYSINNHLTPTFTGAGFGGYSVSQDTTAASNQQVSHSQTGSNNPFALHNAATIATGNPAHENVLNNPFSRPNFDEQNTNMPLQQQIISNPFQNQTYNQQQFQQQKMPLSSINSVMTTPTSMQGSMNIPQRFDKMEFQAHYTQNHLQQQQQQQQQQQQQQQQQPQQGYYVPATAGANPVTNITGTVQPQNFPFYPQQQPQPEQSQTQQPVLGNQYANNLNLIDM
B2: yAP180A 432–637 (domain or fragment, S. cerevisiae, UniProt P38856 432-637, looked up)
chain: GGYSVSQDTTAASNQQVSHSQTGSNNPFALHNAATIATGNPAHENVLNNPFSRPNFDEQNTNMPLQQQIISNPFQNQTYNQQQFQQQKMPLSSINSVMTTPTSMQGSMNIPQRFDKMEFQAHYTQNHLQQQQQQQQQQQQQQQQQPQQGYYVPATAGANPVTNITGTVQPQNFPFYPQQQPQPEQSQTQQPVLGNQYANNLNLIDM
B3: yAP180B 429–568 (domain or fragment, S. cerevisiae, UniProt P53309 429-568, looked up)
chain: GGYTTTENNAIMTGTLDPTKTGSNNPFSLENIAREQQQQNFQNSPNPFTLQQAQTTPILAHSQTGNPFQAQNVVTSPMGTYMTNPVAGQLQYASTGAQQQPQMMQGQQTGYVMVPTAFVPINQQQQQQQHQQENPNLIDI
B4: yAP180A 24–637 (domain or fragment, S. cerevisiae, UniProt P38856 24-637, looked up)
chain: LDPILLGTSNEEDFYEIVKGLDSRINDTAWTIVYKSLLVVHLMIREGSKDVALRYYSRNLEFFDIENIRGSNGSASGDMRALDRYDNYLKVRCREFGKIKKDYVRDGYRTLKLNSGNYGSSRNKQHSINIALDHVESLEVQIQALIKNKYTQYDLSNELIIFGFKLLIQDLLALYNALNEGIITLLESFFELSHHNAERTLDLYKTFVDLTEHVVRYLKSGKTAGLKIPVIKHITTKLVRSLEEHLIEDDKTHNTFVPVDSSQGSAGAVVAKSTAQERLEQIREQKRILEAQLKNEQVAISPALTTVTAAQSYNPFGTDSSMHTNIPMAVANQTQQIANNPFVSQTQPQVMNTPTAHTEPANLNVPEYAAVQHTVNFNPVQDAGVSAQQTGYYSINNHLTPTFTGAGFGGYSVSQDTTAASNQQVSHSQTGSNNPFALHNAATIATGNPAHENVLNNPFSRPNFDEQNTNMPLQQQIISNPFQNQTYNQQQFQQQKMPLSSINSVMTTPTSMQGSMNIPQRFDKMEFQAHYTQNHLQQQQQQQQQQQQQQQQQPQQGYYVPATAGANPVTNITGTVQPQNFPFYPQQQPQPEQSQTQQPVLGNQYANNLNLIDM

Columns and labels:
[1] = target: GST-yAP180A C5 (S. cerevisiae); test: pull-down
[2] = target: T1, Pan1p (S. cerevisiae (endogenous in …)); test: co-IP; conditions: remark: other sources report otherwise
[3] = target: T2, Pan1p EH2 (96–145/403–713); test: two-hybrid
[4] = target: T3, Pan1p EH1 (96–403); test: two-hybrid
[5] = target: T4, Pan1p EH2 (544–713); test: two-hybrid
[6] = target: T5, Pan1p EH1–2 (96–713); test: two-hybrid

Molecule | percent of Chc1p depleted from the unbound fraction [1] [%] | percent of yAP180A coimmunoprecipitated [2] | units β-galactosidase activity [3] | units β-galactosidase activity [4] | units β-galactosidase activity [5] | units β-galactosidase activity [6]
yeast clathrin (from UniProt P22137 1-1653; P17891 1-233) (complex) | 50 |  |  |  |  | 
B1 |  | 3% and 5% |  |  |  | 
B2 |  |  | 33 ± 4 Units β-galactosidase activity | 6 ± 1 Units β-galactosidase activity | 4 ± 1 Units β-galactosidase activity | 117 ± 75 Units β-galactosidase activity
B3 |  |  | 342 ± 15 Units β-galactosidase activity | 70 ± 9 Units β-galactosidase activity | 158 ± 15 Units β-galactosidase activity | 362 ± 67 Units β-galactosidase activity
B4 |  |  | 23 ± 4 Units β-galactosidase activity | 18 ± 7 Units β-galactosidase activity | 2 ± 0.4 Units β-galactosidase activity | 78 ± 2 Units β-galactosidase activity

— PMC2132731 (The Journal of Cell Biology, 1998)
